Test: soluble on expression in E. coli; label from the status in PepcDB or PDB records
For “MAHHHHHHSLVDVRQSIHSEHAKTLDTQALRREFLIENIFVADEYTMVYSHIDRIIVGGIMPVSHPVEIGGEVGKQLGVSRLLDRRELGVINIGGAGAIIVDGQRHDIGHRDALYIGKGAKELVFVSNEASRPAKFYYNCAPAHTAYPTKKVSPADVAPVTLGDNLTSNRRTINKYFVPDVLETCQLSMGLTELAPGNLWNTMPCHTHERRMEVYLYFNMEEDSCVFHMMGQPQETRHIVMRNEQAVISPSWSIHSGVGTKAYTFIWGMVGENQVFDDMDHVAVQDLREG”, the “soluble on expression in E. coli” value was “soluble”. In the case of “MAHIIRRVSIKDVENFISMLAKIYDESPYMFYTPGEYDPSVTSASKQLEEYITSPHKVIFVAESDEQLVGFAFVNTTPFQRIKHVAKIDLGVKKLYQHRGIGQALLDAIMAWCLNNQIHRIEANVPLNNQPALELFKSADFQIEGVLKDKLFIDGKYYDDYMMAKILN”, the “soluble on expression in E. coli” value was “soluble”. For “MAHLKKRNRLKKNEDFQKVFKHGTSVANRQFVLYTLDQPENDELRVGLSVSKKIGNAVMRNRIKRLIRQAFLEEKERLKEKDYIIIARKPASQLTYEETKKSLQHLFRKSSLYKKSSSK”, the “soluble on expression in E. coli” value was “soluble”. For “MAHQYPSWIFINEKTFITREQLNSLLKTYNIFYENQKNLHILYGETEDGKLIVEGMLDIFWGVKRPIQLKIQDEKPFSSFTSMKSSDVFSSKGMTRWGEFDDLYRISELDRTQIPMSEKRNSQEDYLPYHSNTLKPHAKDEPDSPVLYRTMSEAALVRKRMKPLMMDRKERQKNRASINGHFYNHEIENSPQDFALHIIFATGEQRRLKKTDIPLLQRLLQGPSEKNARIFLMDKDAEEISSDVAQYINFHFSLLESILQRLNEEEKREIQRIVTKFNKEKAIILKCLQNKLVIKTETTV”, the “soluble on expression in E. coli” value was “not soluble”. In the case of “MAIDHYENFPVASLLLPRRLRGAVTDIYRFARAADDIADEGAAEDAERLRQLAAFRAELHRIGAEPGTLAVPASADLAPIFTPLAATIARHQLPITPFFDLLSAFEQDISVKRYESHDDLLDYCRRSANPVGRLMLHLYGAVDEANLRDADAICTGLQLVNFWQDVRIDWRKQRVYLPEEDLRRHGVSRDDLAACRLTPQWRELMAFEVQRTRALLHSGAALPRRLPGRIGLELRLVVQGGLRILQRIEDAGYDVFMNRPELGAKDWAVMLWRAFT”, the “soluble on expression in E. coli” value was “not soluble”. With “MAIDSKPHDDLQLFKTNLHPCGYWPDRWASDLVMDPNDPRLGAIYPQTLAWGFRRSGNLLYRPHCEHCNACVPVRVNVNAFVPNRSQRRCLARNATLVTRIVPAERNAEQLSLYRRYLHQRHPDGGMDGHGAIEFDQFLIGPWGYGRFMEIREPATNGTPGQLLAVAVTDLTHQALSAVYTFYEPNAAARGLGTLAILHQIHWAQREQRPYLYLGYWIKDHFKMDYKRRFQKLEIYDGYRWRPFSTTYPTTHTLLEHHHHHH” the “soluble on expression in E. coli” value was “soluble”. In the case of “MAIDYSKWDKIELSDDSDVEVHPNVDKKSFIKWKQQSIHEQRFKRNQDIKNLETQVDMYSHLNKRVDRILSNLPESSLTDLPAVTKFLNANFDKMEKSKGENVDPEIATYNEMVEDLFEQLAKDLDKEGKDSKSPSLIRDAILKHRAKIDSVTVEAKKKLDELYKEKNAHISSEDIHTGFDSSFMNKQKGGAKPLEATPSEALSSAAESNILNKLAKSSVPQTFIDFKDDPMKLAKETEEFGKISINEYSKSQKFLLEHLPIISEQQKDALMMKAFEYQLHGDDKMTLQVIHQSELMAYIKEIYDMKKIPYLNPMELSNVINMFFEKVIFNKDKPMGKESFLRSVQEKFLHIQKRSKILQQEEMDESNAEGVETIQLKSLDDSTELEVNLPDFNSKDPEEMKKVKVFKTLIPEKMQEAIMTKNLDNINKVFEDIPIEEAEKLLEVFNDIDIIGIKAILENEKDFQSLKDQYEQDHEDATMENLSLNDRDGGGDNHEEVKHTADTVD”, the “soluble on expression in E. coli” value was “soluble”. With “MAIIKCDVCAYPFSNKQDPRCSKCHPKITPPSKPKNPYALPMKQQLILGPIVGIVVGLMFAACEGNRPGRATTACMLRARAQAIAAGNPNYTHAKEVSPTRAMLVFRKDGRTRNTNFFCDSLVTDREA” the “soluble on expression in E. coli” value was “not soluble”. With “MAILRLEPQQLYSVADLENMPCKSTKELPPIDEIVGQERAQKAVEFAMSIKEKGYNIYAIGQNGLGKRTMILRYLNRHQHDADALFDWCYVANFEDTRTPKVLKLPCGIGNKLRVDIEALMGKLLNALPLAFDNEMYFSRADRLKNQLANKQQNELDRISREAKEHGISLTITSQGDYQFVAMNGDELHTEESFDALSKKEQEQFSDSIDALEVSLRSMVRELTEWEDTYSDKIKKLNDEVTLDVITHFIKKLKVDYSEYSEIKTYLTELQKDIVENADIFLDQSGEQGEIAAASLDKKLPRRYKVNVLVSRNNSDFPIVVEENPNYHSLFGSIETATFKGTVFTDFSLIRAGSLHKANGGVLLMDAQKVLEQPYVWDGLKRALRARQLSFTSLEKEVTLTGAVSLDPEPIPLDIKIILFGDYRTYQLLQHYDPEFSELFRVTADFEDEMKRTPESELHYARFISSVVHDNNMLHCDRKAIARIIEYSSRLSGDQSKLSLHSANIANLLRESNYVARQANSNMIRIGHVEEAMKNQEMRVSRLRDSVMETFLNGTT” the “soluble on expression in E. coli” value was “not soluble”. With “MAIPKIASYPLPVSLPTNKVDWRIDASRAVLLIHDMQEYFVHYFDSQAEPIPSLIKHIQQLKAHAKQAGIPVVYTAQPANQDPAERALLSDFWGPGLSEETAIIAPLAPESGDVQLTKWRYSAFKKSPLLDWLRETGRDQLIITGVYAHIGILSTALDAFMFDIQPFVIGDGVADFSLSDHEFSLRYISGRTGAVKSTQQACLEIAAQHSKLTGLSLRTMQHDVAAALNLSVDEVDVQENLLFLGLDSIRAIQLLEKWKAQGADISFAQLMEHVTLQQWWQTIQANLHQPCSA” the “soluble on expression in E. coli” value was “not soluble”. With “MAIPSRSPLASRALSFLGALSLLTFAATPVLAESTPTAAPPQFAVESPKAASSLLLSVAHAGKRLVAVGDRGHILLSDDDGKTWTQAKVPTRQLLTSVFFVNERKGWAVGHDAQILVSDDAGSTWARQFEDLGREAPLLDIWFADEQHGLAVGAYGALLETRDGGQHWEDVSERLDNEDQFHLNAIAAVKDNGLLVVGEAGSLFRSKDWGATWEKLEGPYEGSLFGAIGTADAGGVLVYGLRGHLFRSADFGDSWEEIPLKAASGDLEFGLSDGALLADGRIVVVGHGGSVLESTDGGRSFSVFNRPDRLSLAGVSATGDGHLILVGQGGVHLAAANGAALEQQQLEHHHHHH” the “soluble on expression in E. coli” value was “soluble”. In the case of “MAIQLSKGQRIDLTKTNPGLTKAVIGLGWDTNKYSGGHDFDLDASAFLVDAHDNCVNDLDFVFYNNLEHPSGGVIHTGDNRTGEGDGDDEQIIVDFSKIPAHIEKIGITVTIHDAEARSQNFGQVSNAFVRVVDEETQNELLRFDLGEDFSIETAVVVCELYRHGGEWKFNAIGSGFSGGLAALCRNYGLQV”, the “soluble on expression in E. coli” value was “not soluble”. In the case of “MAISNILPRKIMKNRTRQQSMAERHDYDQKEEKTDGGELVSSYMCSPETAAEEFEISKKLYAQLTGRSQSEKHDIIMYRIIQSFKPDEVSPEEAHKIGCELAMKFTGGQHQFVVATHTDKRHIHTHIEFNSTNLNCDAKFQNVKNSAFILRRMNDELCRAHGLSVIENPKKKARPQKEMAAAQYGVSHKKQLQQAIDRLLPECNHYEEFLAKMRAEGYEVVDGKNPGFRLPGWDRPTRVNRLGDDYTKTALRARITSQRRRLTSGKTAPKRTGRKVNLLIDIQAKLAAGKGAGYERWAKIFNLKEAAKTLNFLIENNLTDYDELALRAEQAENGFNAVSQKIKQLEARMAGIAQLKTHIIQYSKTREVYAAYKKSRHKKEFLAEHGAEIAQHEAAKKAFDALNGKAIPKVAQLSAEYAALLEEKREQYEQYKTLRQDMITYQTALRNMDKILGLEPPEQAQEKEQTKPER”, the “soluble on expression in E. coli” value was “not soluble”. In the case of “MAITDILSAKDIESALSSCQAADSFNYKSFFSTVGLSSKTPDQIKKVFGILDQDKSGFIEEEELQLFLKNFSSSARVLTSAETKAFLAAGDTDGDGKIGVEEFQSLVKA”, the “soluble on expression in E. coli” value was “soluble”. In the case of “MAIVKKKKVSAASKAATEKPEVKKAVKRPVAETEAVTPKKKKLVKKVKKSAKKAHEEEPIEQVEKLQLIDDDEDGLEGLSFPGSDDEDLRDDYSDDDSDAGDHLPIEKKSAALDKQKEKIIAEGEEELQLNIANQATFELPTVEEIENEMKSVPNLEIVKQRIADVIQVLGDFKNRRDPQKSRENYVEVLKKDLCSQYGYNDYLMGKFMDLFPNGAELLEFLEANDNPRPVTIRANSLKVKRRDLAKNLINRGMNVDPAADWTKVGLVVYDSQVPVGATPEYLAGHYMIQGLNSLLPVMALAPQPGDRVLDMCSAPGGKTSHIAALMKNSGVLFANDANFTRCRAIIGNLHRLGVNNTVVCNLGGEEFSKIRPNGFDRILLDAPCSGTGVIWKDQSVKTSKDSQDVQRRHTMQRQLILSALDSLDANSPNGGYLVYSTCSVLVEENEAVVNFLLERRHCELVPTGLSIGVDGYTRFRDYRFHPSLSMTKRYYPHVHNIDGFYVAKIKKLSNAKMSKQGVMEKEKEKAAQKSQNKKNKAEAEASESSDDEEEKKNGVEVNGQKKPAKKQQQKKQKADGDDSDDDNNAPMKNIGSGARANKKRRNQKKAAEKQAAVKEDDGFNTVGNVKRAKKPTQFKSKVPKRAAARTGAKSVKNRRKKMLAKQQ”, the “soluble on expression in E. coli” value was “not soluble”. With “MAIVPRPITKFKRACLRIKLARCQKTPLSNFARSDLRSFSVFRFNLSVLQLVSSKIVKLDIMKQAAITSALTQNKMDPINGNLTSTAPVEPLSLTAAEQVGGAFCHQFYITVSENRKAITKFYGHESKFYLDDQVVTGSQEIVKLYNHLPETTHFKIQSIKGYPTPHKQGVIINVIGTVNLRPFLQSFLLGQQGQKKYYVESDAFQYIDKFFVANTEKEKTTSSTGHNGHASGANGKDSKSSKTEQPKEQSKPAPPKQQTPKKAEDRIVKQDTPKSVEKEVAKTPQKPQLAQQPPQQRAPVPEPVQEQPKVQKTWANLVGGGGKSQPPQQQSYGQGQQIHQQTQMHHMQPSMHQQQQGSHAPLYQQQRQSHPANELRQAQESSDANLNERKIYLGGITREIVPSNTAQAESEIKQVFYKYGEIEEVRMPRKVLDSPNDTSKHAFAFITMRNKAGVKAIFEAATKDEQGVWKLPLKLDAFGFDGHAQISEQRDQPQGGGFRGGRGGFQPRGGQFFRRGGSGGAPRGGMRSGFQNAGQN” the “soluble on expression in E. coli” value was “not soluble”. In the case of “MAKAFEEQRRSPDLEALPFEDRIGLLVDREAAERDTRRLTTRLKIAALRQTACVEDVDLRTPRGIDRAVFAKLVEGRWIDRHENLLVTGATGLGKSWLACALGHKACRDNRSVLYHRVPRLFEALALARGDGRYARLLKSLGRAQLLILDDWGLSVLTAAERRDLLEILEDRHGRASTIVTSQLPWTPGMEPLGTPRSPTPFSIASSTTPTASSSPEKACENAAPKPSPLTANQNTDSISHRPAAALEHHHHHH”, the “soluble on expression in E. coli” value was “not soluble”. In the case of “MAKAPDIVDLLTLAVDRNASDLVITVGLPPMIKIDGEFHPTEHEALTPQDTRRLMYALMDEKQQRHFEEEKELDFSFSLPAKGRYRVNVFLQRGSVGGVLRVVPTVVKSFEELGLPKNIGELALTPRGLLLITGPTGSGKSTTLASMIDYINERRRAHIVTIEDPIEFFHRHKTSIINQREIGSDTHGFHKALRSVLRQAPDVILVGEMRDYETISAAITAAETGHLVMGTLHTNSAPETIDRIIDVFPEAQQEQVRVQLANNLVAVMTQQLLPKAFGGGRVLAYELMIATSAVRALIREGKSHQLVSVIQTGGQYNMITMDACLADLYKRKLITYEMGQSRAVDPKEFARLAGAAAPAASTNTGAQRRA”, the “soluble on expression in E. coli” value was “soluble”. With “MAKDDVIEVEGTVLETLPNAMFKVELENGHVVLAHVSGKIRMNFIRILPGDKVTVELSPYDLNRGRITYRFK” the “soluble on expression in E. coli” value was “not soluble”. With “MAKELAEKAKEAFLDDDFDVAVDLYSKAIDLDPNCAAFFADRAQANIKIDNFTEAVVDANKAIELEPTLAKAYLRKGTACMKLEEYSTAKAALEKGASVAPNEPKFKKMIDECDLRIAEEEKDLVQPMPPSLPSSSTTPLATEADAPPVPIPAAPAKPMFRHEFYQKPEEAVVTIFAKKVPKENVTVEFGEQILSVVIDVAGEEAYHLQPRLFGKIIPEKCRFEVLSTKVEIRLAKAEIITWASLEYGKGQSVLPKPNVSSALSQRPVYPSSKPAKDWDKLEAEVKKQEKDEKLDGDAAMNKFFSDIYSSADEDMRRAMNKSFAESNGTVLSTNWKEVGTKKVESTPPDGMELKKWEY” the “soluble on expression in E. coli” value was “not soluble”.
